Measured values: the RNAGym collection of RNA variant scans (doi:10.7554/elife.90254)

B1: LINE1-full (parent)
chain: UACGUAGGUGGUUUUCCCCUGAUAGUGCUAAGGGGGCCUGGAAGUUUGGACUGGGCAGAGCUCAACACAGCGUGGCAAAGUGGCUGUGGCUAGACUGCCUCUCUGGAUUCCUCGUCACUCAGCAGGGCAUCUCUGAGAGAAAUGCC

Variants of: B1
Assay: self-cleavage, relative activity (ratio to wild type); higher = more cleavage; in vitro, sequencing; the parent is a self-cleaving ribozyme

Row | Variant | self-cleavage
1 | A31G A107G | 1.09
2 | A31G A117C | 2.3
3 | A31G A124G | 1.09
4 | A31G A129G | 1.05
5 | A31G A136G | 1.37
6 | A31G A136U | 1.26
7 | A31G A138U | 1.05
8 | A31G A140G | 1.79
9 | A31G C37A | 1.32
10 | A31G C37U | 1.6
11 | A31G C38U | 0.99
12 | A31G C90A | 0.12
13 | A31G C118U | 1.73
14 | A31G C128U | 1.02
15 | A31G C131U | 0.61
16 | A31G G32A | 1.25
17 | A31G G32U | 1.13
18 | A31G G34A | 0.77
19 | A31G G36A | 0.99
20 | A31G G36C | 1.67
21 | A31G G44A | 2.09
22 | A31G G83A | 0.69
23 | A31G G105A | 1.29
24 | A31G G105U | 1.27

Row | Variant | self-cleavage
25 | A31G G126A | 1.32
26 | A31G G127C | 2.39
27 | A31G U39C | 1.17
28 | A31G U45A | 0.85
29 | A31G U45C | 1.07
30 | A31G U62C | 0.13
31 | A31G U87A | 0.13
32 | A31G U104C | 1.91
33 | A31G U112A | 1.61
34 | A31G U115C | 1.37
35 | A31G U130A | 1.26
36 | A31G U130C | 1.45
37 | A31G U132A | 0.94
38 | A31U A42G | 1.46
39 | A31U A57U | 0.24
40 | A31U A64U | 0.42
41 | A31U A65G | 0.16
42 | A31U A65U | 0.21
43 | A31U A67U | 0.3
44 | A31U A69G | 0.75
45 | A31U A77U | 0.96
46 | A31U A78G | 0.94
47 | A31U A78U | 1.57
48 | A31U A79G | 0.55

Row | Variant | self-cleavage
49 | A31U A79U | 2.19
50 | A31U A117G | 1.2
51 | A31U A117U | 0.95
52 | A31U A129G | 1.25
53 | A31U A136G | 0.79
54 | A31U A138G | 1.26
55 | A31U A140G | 0.81
56 | A31U A140U | 0.94
57 | A31U A141G | 1.01
58 | A31U A142G | 0.78
59 | A31U C37A | 1.53
60 | A31U C51G | 1.4
61 | A31U C61A | 0.13
62 | A31U C63G | 0
63 | A31U C101U | 0.58
64 | A31U C110A | 0.91
65 | A31U C131U | 1.06
66 | A31U C145A | 1.65
67 | A31U G32A | 1.56
68 | A31U G34A | 0.56
69 | A31U G36U | 0.81
70 | A31U G70A | 0.26
71 | A31U G82U | 0.74
72 | A31U G125U | 1.37

Row | Variant | self-cleavage
73 | A31U G144A | 0.96
74 | A31U G144U | 1.03
75 | A31U U39A | 1.05
76 | A31U U45A | 0.9
77 | A31U U45C | 1.17
78 | A31U U46C | 1.05
79 | A31U U47A | 0.77
80 | A31U U73C | 1.51
81 | A31U U81C | 0.75
82 | A31U U85A | 0.07
83 | A31U U85C | 0.28
84 | A31U U87C | 0.24
85 | A31U U91C | 0.38
86 | A31U U100A | 0.67
87 | A31U U100C | 1.41
88 | A31U U100G | 1.23
89 | A31U U102A | 1.91
90 | A31U U102C | 1.05
91 | A31U U104C | 1.3
92 | A31U U108C | 1.3
93 | A31U U112A | 1.8
94 | A31U U115A | 1.08
95 | A31U U119A | 1.17
96 | A31U U130A | 1.53

Row | Variant | self-cleavage
97 | A31U U132C | 1.39
98 | A31U U134A | 0.9
99 | A31U U134C | 1.2
100 | A31U U143A | 0.78
101 | G32A | 1.23
102 | G32A A42G | 1.27
103 | G32A A43G | 1.25
104 | G32A A57U | 0.16
105 | G32A A65G | 0.11
106 | G32A A65U | 0.1
107 | G32A A67U | 0.09
108 | G32A A78G | 0.47
109 | G32A A92U | 0.75
110 | G32A A94G | 0.36
111 | G32A A107C | 1.91
112 | G32A A107U | 1.27
113 | G32A A124G | 0.69
114 | G32A A124U | 0
115 | G32A A136G | 1.35
116 | G32A A136U | 0.45
117 | G32A A138G | 1.16
118 | G32A A140G | 1.61
119 | G32A A142G | 1.22
120 | G32A C71U | 0.91

Row | Variant | self-cleavage
121 | G32A C84U | 0.21
122 | G32A C113U | 1.43
123 | G32A G75C | 0.65
124 | G32A G89U | 0.04
125 | G32A G97U | 0.1
126 | G32A U39A | 1.66
127 | G32A U47A | 1.37
128 | G32A U47C | 1.58
129 | G32A U52A | 1.28
130 | G32A U62A | 0.08
131 | G32A U62C | 0.07
132 | G32A U73C | 1.49
133 | G32A U81A | 1.46
134 | G32A U81G | 1.36
135 | G32A U85A | 0.14
136 | G32A U85C | 0.16
137 | G32A U87A | 0.03
138 | G32A U96C | 0.13
139 | G32A U102C | 1.62
140 | G32A U119C | 1.29
141 | G32A U132C | 2.03
142 | G32A U134C | 1.22
143 | G32A U143C | 1.4
144 | G32C | 1.23

Row | Variant | self-cleavage
145 | G32C A59U | 0.78
146 | G32C A77U | 0.81
147 | G32C A78G | 0.73
148 | G32C A141G | 1.99
149 | G32C A142G | 1.58
150 | G32C G35A | 1.16
151 | G32C G60U | 0.02
152 | G32C U45C | 1
153 | G32C U81A | 1.9
154 | G32C U81C | 0.55
155 | G32C U100C | 2.13
156 | G32C U108C | 1.55
157 | G32C U115C | 1.56
158 | G32U | 0.98
159 | G32U A42G | 1.07
160 | G32U A50G | 0.69
161 | G32U A77C | 1.31
162 | G32U A77G | 3
163 | G32U A78G | 0.94
164 | G32U A79G | 0.97
165 | G32U A94G | 0.2
166 | G32U A117G | 1.13
167 | G32U A121U | 0
